Source: patent CN118525034A (INTERVET INT BV, dated 2024)

T1: 犬IL-31RA ECD-10His (犬 (canine))
T1 chain: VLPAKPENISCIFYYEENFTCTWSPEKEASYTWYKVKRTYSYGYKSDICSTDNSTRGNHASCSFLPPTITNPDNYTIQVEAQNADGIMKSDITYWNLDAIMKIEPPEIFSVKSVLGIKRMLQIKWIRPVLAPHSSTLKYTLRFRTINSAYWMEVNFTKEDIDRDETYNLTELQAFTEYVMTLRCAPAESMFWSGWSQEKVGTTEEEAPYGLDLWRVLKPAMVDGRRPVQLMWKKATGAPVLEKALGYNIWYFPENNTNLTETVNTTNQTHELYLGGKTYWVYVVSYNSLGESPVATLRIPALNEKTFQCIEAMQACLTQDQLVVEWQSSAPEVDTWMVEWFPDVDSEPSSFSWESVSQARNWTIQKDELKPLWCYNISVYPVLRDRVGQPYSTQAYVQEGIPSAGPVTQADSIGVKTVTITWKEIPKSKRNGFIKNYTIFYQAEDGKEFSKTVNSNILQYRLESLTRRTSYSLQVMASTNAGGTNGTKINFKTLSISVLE


Key:
[1] = biological target: 犬IL-31RA ECD-10His (犬 (canine)); assay: ELISA, IL-31RA ECD coated at 1 µg/mL, biotinylated canine IL-31 titrated, HRP-streptavidin
犬IL-31RA ECD-10His [2] = biological target: T1, 犬IL-31RA ECD-10His; assay: Octet BLI, biotinylated canine IL-31RA on SA biosensor, mAb 100-3.13 nM, 1:1 model
犬IL-31RA ECD-10His [3] = biological target: T1, 犬IL-31RA ECD-10His; assay: Octet BLI; upper end of the range, tied to 85C10 by Table 2
犬IL-31RA ECD-10His [4] = biological target: T1, 犬IL-31RA ECD-10His; assay: Octet BLI, biotinylated canine IL-31RA on SA biosensor
犬IL-31RA ECD-10His [5] = biological target: T1, 犬IL-31RA ECD-10His; assay: Octet BLI; lower end of the range, tied to 224G3 by Table 2

Molecule | EC50 [1] | Kd (犬IL-31RA ECD-10His [2]) | koff (犬IL-31RA ECD-10His [2]) | kon (犬IL-31RA ECD-10His [2]) | Kd (犬IL-31RA ECD-10His [3]) | Kd (犬IL-31RA ECD-10His [4]) | Kd (犬IL-31RA ECD-10His [5])
犬IL-31 (ligand) | 0.55 ng/mL |  |  |  |  |  | 
209G5 (antibody, V domains shown) VH: EVQLQQSVAELVRPGASVKLSCTASGFNIKNTYMHWVKERPEQGLEWIGRIDPANGNSKYAPKFQGKATITTDTSSNTAYLQLSSLTSEDTAIYYCARYYYVSSHFDVWGTGTTVTVSS VL: DIKMTQSPSSMYASLGERVTITCKASQDINSYLNWFQQKPGKSPKTLIYRADRLVDGVPSRFSGSGSGQDYSLTISSLEYEDMGIYYCLQYDEFPLTFGDGTKLELN |  | 0.131 nM | 4.87e-05 s⁻¹ | 370000 M⁻¹ s⁻¹ |  |  | 
85C10 (antibody, V domains shown) VH: EFQLQQSGPELVKPGASVKISCKASGYSFTDYSINWVKQSNGKSLEWIGVINPNYGTSSHNQKFKGKATMTVDQSSSTAYMQLNSLTSEDSAVYYCARALDDYYFYWYFDVWGIGTTVTVSS VL: DVVMTQTPLSLPVSLGDQASISCRSSQSLIHTNGNTYLHWYLQKPGQSPKLLIYKVSNRFSGVPDRFSGSGSGTDFTLKISRLEAEDLGVYFCSQSTHVPLTFGAGTKLELR |  | 0.851 nM | 0.000363 s⁻¹ | 427000 M⁻¹ s⁻¹ | 0.85 nM |  | 
218D9 (antibody, V domains shown) VH: QVTLKESGPGILQPSQTLSLTCSFSGFSLSTFGRGVGWIRQPSGKGLDWLTHIWWDDDKYYNPALKSRLTISKDTSKNQVFLKIANVDTADTATYYCARIAGGLRRAPYAMDSWGQGTSVTVSS VL: DVVMTQTPLSLPVSLGDQASISCRSSQSLVHTNGNTYLHWYLQKPGQSPKLLIYKVSNRFSGVPDRFSGSGSGTDFTLKISRVEAEDLGVYFCSQTTHVPLTFGAGTKLELK |  | 0.0698 nM | 4.63e-05 s⁻¹ | 664000 M⁻¹ s⁻¹ |  | ~0.07 nM | 
224G3 (antibody, V domains shown) VH: EVQLVESGGDLVKPGGSLKLSCAASGFTFSSYGMSWVRQTPDKRLEWVATISNGGSYTYYPDSVKGRFTISRDNAKNTLYMQMSSLKSEDTAMYYCARNEPPDYWGQGTSVTVSS VL: DIQMTQSPASLSVSVGETVTITCRASENIYSSLAWYQQKQGKSPQLLVYAATNLADGVPSRFSGSGSGTQYSLKINSLQSEDSGNYYCQHFRDTPPTFGGGTKLEIK |  | 0.000964 nM | 1.08e-06 s⁻¹ | 1.12e+06 M⁻¹ s⁻¹ |  |  | 0.001 nM
65G9 (antibody, V domains shown) VH: EFQLQQSGPELVKPGASVKISCKASGYSFTDYGMNWLKQINGKSLEWIAIINPNYGTASSNPKFKDKATLTVDHSSSTAYMQLSSLTSEDSAVYYCARAFDGYYFYWYFDVWGTGTTVTVSS VL: SIVMTQTPKFLLVSAGDRVTITCKASQSVTNDVTWYQQKPGQSPKLLIFSASNRYTGVPDRFTGSGYGTDFTFTISTVQAEDLAVYFCQQDYSSPWTFGGGTKLEIK |  | 0.451 nM | 0.000355 s⁻¹ | 787000 M⁻¹ s⁻¹ |  |  | 
51F8 (antibody, V domains shown) VH: EVQLQQSVAELVRPGASVKLSCTASGFNIKNTFIHWVKQRPEQGLEWIGRIDPANGNTKYAPKFQGRATLTADTSSNTAYLQLSSLTSEDTAIYYCARYYYVSSYFDVWGTGTTVTVSS VL: SIVMTQTPKFLLVSAGDRVTITCKASQSVTNDVTWYQQKPGQSPKLLIYYASNRYTGVPDRFTGSGYGTDFTFTISTVQAEDLAVYFCQQDYSSPFTFGSGTKLEIK |  | 0.207 nM | 0.000141 s⁻¹ | 684000 M⁻¹ s⁻¹ |  | ~0.2 nM | 
